Results: PMC5013595

Key:
[1] = secretion into S2 culture medium; conditions: glycan lost; control: wild type
[2] = size-exclusion chromatography; conditions: glycan lost; control: glycosylated IFNγR2

Protein	expression_or_secretion [1]	oligomerisation [2]
interferon-γ receptor 2 (IFNγR2): N110Q (protein) parent chain: MRPTLLWSLLLLLGVFAAAAAAPPDPLSQLPAPQHPKIRLYNAEQVLSWEPVALSNSTRPVVYQVQFKYTDSKWFTADIMSIGVNCTQITATECDFTAASPSAGFPMDFNVTLRLRAELGALHSAWVTMPWFQHYRNVTVGPPENIEVTPGEGSLIIRFSSPFDIADTSTAFFCYYVHYWEKGGIQQVKGPFRSNSISLDNLKPSRVYCLQVQAQLLWNKSNIFRVGHLSNISCYETMADASTELQQVILISVGTFSLLSVLAGACFFLVLKYRGLIKYWFHTPPSIPLQIEEYLKDPTQPILEALDKDSSPKDDVWDSVSIISFPEKEQEDVLQTL	abolishes	–
interferon-γ receptor 2 (IFNγR2): PNGase F (protein) parent chain: MRPTLLWSLLLLLGVFAAAAAAPPDPLSQLPAPQHPKIRLYNAEQVLSWEPVALSNSTRPVVYQVQFKYTDSKWFTADIMSIGVNCTQITATECDFTAASPSAGFPMDFNVTLRLRAELGALHSAWVTMPWFQHYRNVTVGPPENIEVTPGEGSLIIRFSSPFDIADTSTAFFCYYVHYWEKGGIQQVKGPFRSNSISLDNLKPSRVYCLQVQAQLLWNKSNIFRVGHLSNISCYETMADASTELQQVILISVGTFSLLSVLAGACFFLVLKYRGLIKYWFHTPPSIPLQIEEYLKDPTQPILEALDKDSSPKDDVWDSVSIISFPEKEQEDVLQTL	–	increases
interferon-γ receptor 2 (IFNγR2): N56Q, N110Q, N137Q and N231Q (protein) parent chain: MRPTLLWSLLLLLGVFAAAAAAPPDPLSQLPAPQHPKIRLYNAEQVLSWEPVALSNSTRPVVYQVQFKYTDSKWFTADIMSIGVNCTQITATECDFTAASPSAGFPMDFNVTLRLRAELGALHSAWVTMPWFQHYRNVTVGPPENIEVTPGEGSLIIRFSSPFDIADTSTAFFCYYVHYWEKGGIQQVKGPFRSNSISLDNLKPSRVYCLQVQAQLLWNKSNIFRVGHLSNISCYETMADASTELQQVILISVGTFSLLSVLAGACFFLVLKYRGLIKYWFHTPPSIPLQIEEYLKDPTQPILEALDKDSSPKDDVWDSVSIISFPEKEQEDVLQTL	abolishes	–
interferon-γ receptor 2 (IFNγR2): N231Q (protein) parent chain: MRPTLLWSLLLLLGVFAAAAAAPPDPLSQLPAPQHPKIRLYNAEQVLSWEPVALSNSTRPVVYQVQFKYTDSKWFTADIMSIGVNCTQITATECDFTAASPSAGFPMDFNVTLRLRAELGALHSAWVTMPWFQHYRNVTVGPPENIEVTPGEGSLIIRFSSPFDIADTSTAFFCYYVHYWEKGGIQQVKGPFRSNSISLDNLKPSRVYCLQVQAQLLWNKSNIFRVGHLSNISCYETMADASTELQQVILISVGTFSLLSVLAGACFFLVLKYRGLIKYWFHTPPSIPLQIEEYLKDPTQPILEALDKDSSPKDDVWDSVSIISFPEKEQEDVLQTL	abolishes	–
interferon-γ receptor 2 (IFNγR2): Endo H (protein) parent chain: MRPTLLWSLLLLLGVFAAAAAAPPDPLSQLPAPQHPKIRLYNAEQVLSWEPVALSNSTRPVVYQVQFKYTDSKWFTADIMSIGVNCTQITATECDFTAASPSAGFPMDFNVTLRLRAELGALHSAWVTMPWFQHYRNVTVGPPENIEVTPGEGSLIIRFSSPFDIADTSTAFFCYYVHYWEKGGIQQVKGPFRSNSISLDNLKPSRVYCLQVQAQLLWNKSNIFRVGHLSNISCYETMADASTELQQVILISVGTFSLLSVLAGACFFLVLKYRGLIKYWFHTPPSIPLQIEEYLKDPTQPILEALDKDSSPKDDVWDSVSIISFPEKEQEDVLQTL	–	no change
interferon-γ receptor 2 (IFNγR2): N137Q (protein) parent chain: MRPTLLWSLLLLLGVFAAAAAAPPDPLSQLPAPQHPKIRLYNAEQVLSWEPVALSNSTRPVVYQVQFKYTDSKWFTADIMSIGVNCTQITATECDFTAASPSAGFPMDFNVTLRLRAELGALHSAWVTMPWFQHYRNVTVGPPENIEVTPGEGSLIIRFSSPFDIADTSTAFFCYYVHYWEKGGIQQVKGPFRSNSISLDNLKPSRVYCLQVQAQLLWNKSNIFRVGHLSNISCYETMADASTELQQVILISVGTFSLLSVLAGACFFLVLKYRGLIKYWFHTPPSIPLQIEEYLKDPTQPILEALDKDSSPKDDVWDSVSIISFPEKEQEDVLQTL	abolishes	–
